Laboratory results: the supplement of paper PMC11502859

System: HEK293T
Assay: median enrichment of reporter reads in eGFP-reduced (low/intermediate) vs eGFP-high sorted cells (eGFP-extension fusion abundance) (ratio); higher = stronger loss of eGFP-fusion protein abundance (more destabilising extension)
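Note: lentiviral eGFP-IRES-mCherry reporter pool sorted by FACS 96 h post-transduction, gated on mCherry-high cells, Illumina read counts normalized per million, median across four biological replicates.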

Substance	median enrichment
MMMMM [Met05]	5.18
YGAPTFDFYLSSSWIF [HMGA2]	9.36
KPVLGPSVKYP [GNPDA1]	0.312
LGSVPGWPVPITSYAHLPPPVFPPLDWWPLPWGRSPHVPAPGDRQRRQQAAFVAQQGALPSLLPSCFS [CST3]	4.44
QKVPLANCLEAQHNPKALFR [HIST1H1E]	2.26
SVLPSVTSNSGKRKLK [STARD13]	0.451
GGLLSVLGTPGPYRTRAAALSHPLGRRYGSSVPLASMWSGGDAAPVVGTSWGDPRPSLAGLSPVPISHSGPRADILIK [GUK1]	2.98
SCPSFGNILF [RNASET2]	0.362
YILLKVF [LY75]	4.38
WSSVVE [TMEM17]	0.673
QRQ [GNB1]	0.344
WECRSAGRREE [CNPY1]	7.46
LPLKTVPLRDPKTLGIDTWASGRAQPWAGGLLRTQRCAWNHS [SLC4A3]	31
LISLSKSIKRESSLQK [SYNGR4]	8.85
WHPCTQEDSAFTKHFHCLAKV [GPR12]	11.3
LAAGVAMMGWSSLGQGVLGPTPTPPPRHHFPSRFLRLDLGSPLPVMHSCPGPTSPSLTSLELWPPRKGPIQPRLFTEVVLFMK [SCN1B]	4.89
KARFLAVQFLLKVPLFPKSNY [HBB]	5.47
SYKPA [WDR97]	0.947
RLHTCMLSPRGNGLYIAHFTLFRRHFIPALVLLEGLSRQSSSCSASVCDSPPSTPMALSLGDSSSPRKEGGVAEDLQPWPRGA [PRKAB1]	7.16
YRQK [CCR2]	0.225
QELTQQKRTASIPHAFTHQIILKNSDPQVF [TOR3A]	13.3
SDQLVCL [PPP1R15A]	0.401
SCPPRCSQGNLAPRS [ZIC4]	0.982
LLSITKVYSKIIF [HNMT]	7.95

Substance	median enrichment
YLSGLSVL [MCOLN3]	19
QYT [ZMYM5]	0.736
ETSGFSSQTF [ELP5]	0.462
LDALAMAQEKPARKNQTDFHTKEEASIFFFLFFIGVVTKPFRLLLFKI [QRICH1]	10.6
LMGCSLLLSFLGLLCFAVLENHKERNSYGEVRKTEKDSCVKLFFACKLLHFKRPPLFLQRTFFAQLWTLSMVP [DLX5]	11.5
WAPSCLSRDPGTPPARTLGLSLPRAPPASVDWRVVLPLPRNQPQPR [SLC9A3R2]	18.7
YKE [DCAF17]	0.608
TTMERWAVAMVDGLPGWAFELALGTTRLSLSSHGTQKCAAMLPRVLSPHLSQPSWRPGLSLQPLGPALIAGGQALDLEGLAHP [ADGRG1]	5.12
QAVFNLLLNWVFLALILIINHNL [FAM47A]	5.56
WQDLLTSS [VN1R4]	0.623
RPCAEALPGFTQLMDSSVLTLSTTPFTSLFDFRSYRHCLR [GINS1]	7.78
SGARLWDRPGPASGGDPGSGLGSPDLEACPSRASQD [CEBPA]	0.648
YYYLQMKLTYTDLSSLMKKIRCYPIK [RBM11]	13
MGNYILLCQGQQTPAVKGIPSARRLFGACMFIAPARPDRGLLHKPCLVHFFTCKGTECGLRFGTRGGFGNYGAQVIILRSFIQ [AHNAK]	9.08
GGQCLPAPPLASSSAPRVPSVDPIRPAMASYSKMV [ACO2]	0.291
REAMPWSWD [SLN]	0.623
QSTTALSS [GALNT4]	0.487
YKRPWSGPTLRPSISQALSAVIPRTQWAPCTPVSGAVRLGYIVNSASTERLALRASSESSSSGTPPKPTPPGTPLSGIPAKRR [PRRT1]	1.15
KSYLSLSNGMKLDNFKKLSRTKGERNTCSFSCN [KLHL4]	5.48
QSQEPSSLI [CNDP1]	0.195
NNNNNN [Asn06]	0.37
VAANTPASGLLVAAPGDTPAKPTRWRGPPWSLATLPASAQGPLPSPGHLLCRRHSSQKPLSQKRLVFKKSRFFAPEVSFRGRM [AP1M1]	4.38
SDFDHLNFL [IL1RL1]	0.533
SVAMVKVSVAAAAMASRRRCWDCFALEPASGCPLQWLCYCMDCILDFMCMSQ [DYNLL2]	11

Substance	median enrichment
LRRGPGSLRACEEHLLPKNVWFFFLFCFRFSSFEEQREIKRRPPGRGAFSQRLGRFPKSRVPASPAEFTSVPEAAVSSS [BIN1]	7.66
SNIWLRCHWLRPTRSSFGWCRDHMHIIPGINTELFVNIAAPVF [LRRC6]	12.4
FFFF [Phe04]	9.4
LSLLIQKWGQFRKNYLLFAWWFFIMDLAQKKNC [GART]	11.7
YGVAQGAPGRGPGPRTL [TMEM38A]	0.588
LDLVQHGNDSYRLIQQLTLRQVVLFQRPLFLPKPCYELNQMCQVFSGVLSNILFSCMGTSPLQMTMLMDLFIYLFKSLFS [IFNA8]	6.11
LEQ [UNC93A]	0.561
GGGGGGG [Gly07]	2.97
QEKAIWDLITLNRHANTVCVRALCIQ [PCDH9]	6.25
SHFKLTL [PTGIR]	1.1
VVVV [Val04]	1.54
SVDTPAPVGMDGPDFMASGTWAQRGACGRGWENKVQGRDQTAASLYMPS [ITIH3]	32.4
QLGPAWKASAPCTHTDRNFRDCGVETGAQALQRVALKL [RAB36]	7.77
VVVVVV [Val06]	5.06
LYKKKYCPYQKQILLCTF [RHOT1]	9.77
LKDRFFKLT [RBBP6]	3.7
WETA [FAXDC2]	0.459
SSSSSSS [Ser07]	0.279
YVTTPRSSAFKTKRDWGSGEGEEEQEEKKYSELLQVTLIKNLL [NR5A2]	8.46
YSFKSNRIIFHLAVVRSN [SS18L2]	12.1
YARWLRNTGEASAFGKEICFGDDLSGNLNLLL [GBA3]	5.41
ECPLFLFLLSPFSSLRSIGPLLSIFITRCFPLKHAHATVTKTNNYHFPNFIQNHFSVFLFPTPPTTFNDEIP [PHYHIPL]	15.5
LTSDRRSSLSSLSGSKMTRANGTKFESCQVNTWVLSMVTSICFVMCVLFQPEWEMLIQLLQAAQWGWWL [CFH]	6.21
AAAAAAAA [Ala08]	7.64

Substance	median enrichment
WRCRHPSPIIKST [CPS1]	8.4
SRPWSESAPVGILPPPCWPPFSPQPLR [PGAP3]	14.1
LLHMQKDSAIYLKID [APBB2]	11.6
QDFRSICKCLFFIIALYIVCYLTR [DDX5]	10.2
CAAQTEAQAQGRNLEQGHFGHSRTGERQLYFSLGQLQRVGQALMGSDCQSDAVGPRQRKAGRRGARTFSPHCPFPFSGEHRRL [C16orf58]	4.54
RAPTLQPQTLCTPRCDAGRGPPPGRTDCRSWEPRHAQASAEGAAGGSARLDPWHLIKKFSLMSMVVGQPSSLSQQAHAASVTS [ZFPM1]	2.21
CVSSFTDSPQPFSCLKT [DPH6]	3.83
LPDFGAAEAT [ELP6]	0.429
SAGSSPLVHSSQGQKGVDMINTESPTSTPTEFPARQCQKHFSREPKPNQEEAREEAGREEGAFPAPRFLKCRSDTCVGVHVLY [SWI5]	1.02
KIFLELLAIVTECPPFQSQLKTSAP [HEY2]	4.36
SGLVCRTAAGAPPGQIIAASDCGLYLFIPSDFFNVRYL [FBLN1]	30.5
CAPAERRLETGATASRVQQHSRHGSGRDSAWPRGTFPGQGPGGNWHGLVPLLCCILIPQPAPLGSDLSCPRAEPGGPEGEMNP [ANKRD13B]	6.25
RFPSPLLLLLLDGNHSLDHACSL [TUBG2]	2.18
YATRRCPRPSRRRGSLAGAAPPCVRPAGAHVF [HHIPL1]	11.3
WGWTPVPAGRSPDMWTCSFVPTVHAGLRLEPRGAGQFTGSCRTRCQPLRGGTADARGFAHPGPSVPRAK [ITPKA]	6.95
CPADTLPPPAPSTLSWAPPYLNL [NGF]	0.552
SWPPPFPPPAPSPSPTRQLIPGLLSDPFSRGTSGQCPTTHTHHHLTGSSLISDNPHPHCFWGSLSHLSHPVSCLCLSWCLSGL [CCDC97]	5.65
YTSVLNQDLTQKD [GTF2IRD1]	0.784
YEKCVVCGADSGHHVDSLALPQATSPGTIFLP [BTD]	2.26
YGFKTFLLHSTNLTSF [SNED1]	33.4
ACVARPDKHLQMAAAPTWDLPRRLEQKGLSLGWCFSSRVLGCMFCTASREGVSGGHHLWDTGSKGPVHSVISFLAPASPTSPR [TMEM141]	4.72
REDHGLSVPQSQLPDG [TBC1D10C]	1.36
CVWGLAPCSPGPHCSHTLRLGPPSLLWC [TOM1]	9.33
SFLFYSH [DNAJB9]	9.2

Substance	median enrichment
CESVHQTKCGKNTKKT [GYPA]	0.413
QPWSITLPPSPGTTGPITFECCIWISRCLCGSLPHFSWT [UBE2Q1]	7.69
YGAKRCLSEVGHFLKIQIFISLFRHGCLQVFHCLLLLEI [TMEM246]	19.9
CVARALGVLLEAPRASRIASQLPGQPTLLQPLTRTPVIRTGAPVPWSPPWAHVLTQAQQ [OVOL1]	8.09
EGPPCICT [PDK2]	1.79
IIIIIIII [Ile08]	5.38
CKKKKKKALAFSCLFC [PCDH17]	46.4
EHQETLE [KLHL14]	0.343
YEHLDQVEKGTLSLVCGKQHLQEI [XKR6]	0.3
QQQ [Gln03]	0.325
RSHTACSFGCD [EIF2B5]	0.722
LEMKKDEVLTQ [DNAJC5G]	0.255
YGPVGPAAVLHPTPLTPASCCK [WDR13]	6.81
TTTTT [Thr05]	0.336
WMLSRSWRFKKKCRMAV [OR52D1]	23.1
QEHPHDIAFGGAPVACRIACGLCNLLRFKTDGHMCQWGSLSPGPKKQGTKFKTLASSQPLKPWPPEFPFLSLSFYFFYFYFYF [JAK3]	7.54
SAPDSASALLTFYPVSLPSPLKAGAPRELPWSSLPGRV [PKMYT1]	8.2
CATLSVGFFLEDSTLLPHVLSQLQS [CSTF1]	8.47
SAGPWDTAFSFARLSACRPGGEPGPANESLVYLGCNSLKVQSFGLQSCPGPGSPGHCCSPRPWALVFLQHHTCCPFSISVCVK [MYO1F]	7.3
YRDLQRPGQK [PEG10]	12
